What follows are binders tested against FXR1-GST (Homo sapiens, UniProt P51114 1-621) (assay: EMSA).
FXR1-GST, sequence (P51114 whole entry): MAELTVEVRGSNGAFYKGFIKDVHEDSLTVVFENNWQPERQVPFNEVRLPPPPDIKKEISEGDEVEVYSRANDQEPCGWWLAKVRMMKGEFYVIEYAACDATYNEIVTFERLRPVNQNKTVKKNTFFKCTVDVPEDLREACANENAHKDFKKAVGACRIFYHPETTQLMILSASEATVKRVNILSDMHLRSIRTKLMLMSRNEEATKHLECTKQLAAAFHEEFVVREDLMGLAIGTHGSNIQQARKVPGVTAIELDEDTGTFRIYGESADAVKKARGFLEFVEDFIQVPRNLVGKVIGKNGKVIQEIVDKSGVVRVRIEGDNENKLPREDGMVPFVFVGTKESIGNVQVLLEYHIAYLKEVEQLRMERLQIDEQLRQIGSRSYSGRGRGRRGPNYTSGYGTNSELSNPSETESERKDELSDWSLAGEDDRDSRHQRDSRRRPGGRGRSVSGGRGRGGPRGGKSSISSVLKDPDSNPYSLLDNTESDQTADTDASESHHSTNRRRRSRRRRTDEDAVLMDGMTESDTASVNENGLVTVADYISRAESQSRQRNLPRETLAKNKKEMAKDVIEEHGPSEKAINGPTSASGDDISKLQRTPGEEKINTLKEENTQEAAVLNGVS

Binding result, binds:
GAAAGAUUUAGCCAU (ssRNA) [cMYC 3'UTR-ARE1]
UUUGUAUUUAAGAAU (ssRNA) [cMYC 3'UTR-ARE2]
UUUUUAUUUAAGUAC (ssRNA) [cMYC 3'UTR-ARE4]
UUGUGAUUUAUUUUG (ssRNA) [cMYC 3'UTR-ARE5]

Source: doi:10.1101/2020.07.19.210252
